Measured values as given in patent publication US20250019450A1 (DIAGONAL THERAPEUTICS, published 2025).
Each block holds one binder with its values, some of them ahead of it.

What was measured:
[1] = biological target: T1, human IL-12Rβ2-huFc-his (R&D system), biotinylated (human, UniProt Q99665 24-622, limits assumed, biotinylated); test: ELISA, periplasmic extract
T1 construct: bought; captured on Neutravidin in the ELISA; also called Bio-huIL-12Rβ2-huFc-His
T1 sequence (looked up): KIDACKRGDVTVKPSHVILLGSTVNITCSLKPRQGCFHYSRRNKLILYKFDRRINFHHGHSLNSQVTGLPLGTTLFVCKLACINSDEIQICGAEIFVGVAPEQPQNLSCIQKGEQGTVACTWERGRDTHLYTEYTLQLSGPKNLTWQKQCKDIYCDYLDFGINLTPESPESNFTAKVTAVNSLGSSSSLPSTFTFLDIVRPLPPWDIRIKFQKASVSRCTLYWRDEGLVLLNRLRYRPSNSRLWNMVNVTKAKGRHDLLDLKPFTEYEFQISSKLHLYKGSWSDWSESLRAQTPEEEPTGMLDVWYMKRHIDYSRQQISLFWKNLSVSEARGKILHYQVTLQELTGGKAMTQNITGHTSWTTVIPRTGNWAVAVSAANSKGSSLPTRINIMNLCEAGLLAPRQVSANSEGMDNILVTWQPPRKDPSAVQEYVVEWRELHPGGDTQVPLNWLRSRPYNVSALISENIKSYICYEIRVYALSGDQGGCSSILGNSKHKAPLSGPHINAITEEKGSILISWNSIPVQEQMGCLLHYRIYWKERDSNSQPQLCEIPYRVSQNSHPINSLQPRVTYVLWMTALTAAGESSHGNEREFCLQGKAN

[2] = biological target: T2, human IL-12RB2 with C-terminal HA tag, transiently expressed on HEK-293T cells (human, UniProt Q99665 24-862); test: FACS, periplasmic extract, HEK-293T
T2 construct: whole, on cells; also called human IL-12Rβ2
T2 sequence (looked up): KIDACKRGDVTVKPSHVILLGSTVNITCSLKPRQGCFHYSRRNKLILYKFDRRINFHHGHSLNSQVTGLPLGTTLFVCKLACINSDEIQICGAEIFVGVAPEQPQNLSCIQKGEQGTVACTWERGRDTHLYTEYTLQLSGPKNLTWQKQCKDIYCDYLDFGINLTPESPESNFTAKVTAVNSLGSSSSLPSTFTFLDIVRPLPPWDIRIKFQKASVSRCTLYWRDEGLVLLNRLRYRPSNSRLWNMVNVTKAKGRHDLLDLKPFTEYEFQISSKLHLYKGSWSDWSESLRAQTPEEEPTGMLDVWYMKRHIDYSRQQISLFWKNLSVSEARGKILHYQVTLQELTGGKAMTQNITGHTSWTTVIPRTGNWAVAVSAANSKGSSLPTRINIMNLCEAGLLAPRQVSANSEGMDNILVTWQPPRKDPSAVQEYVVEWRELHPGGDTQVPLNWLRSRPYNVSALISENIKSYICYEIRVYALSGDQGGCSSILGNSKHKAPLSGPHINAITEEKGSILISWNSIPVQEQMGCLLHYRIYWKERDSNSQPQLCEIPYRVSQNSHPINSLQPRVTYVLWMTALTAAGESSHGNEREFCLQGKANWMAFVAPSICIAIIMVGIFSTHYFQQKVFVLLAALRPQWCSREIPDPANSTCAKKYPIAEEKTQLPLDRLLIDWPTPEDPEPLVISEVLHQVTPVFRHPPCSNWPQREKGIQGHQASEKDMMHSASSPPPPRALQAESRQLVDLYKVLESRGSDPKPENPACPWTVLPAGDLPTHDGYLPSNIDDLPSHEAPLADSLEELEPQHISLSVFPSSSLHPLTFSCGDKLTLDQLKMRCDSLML

[3] = biological target: T3, cyno IL-12RB2 with C-terminal HA tag, transiently expressed on HEK-293T cells (cyno, UniProt A0A2K5VNI7 24-860); test: FACS, periplasmic extract, HEK-293T
T3 construct: whole, on cells; also called cyno IL-12Rβ2
T3 sequence: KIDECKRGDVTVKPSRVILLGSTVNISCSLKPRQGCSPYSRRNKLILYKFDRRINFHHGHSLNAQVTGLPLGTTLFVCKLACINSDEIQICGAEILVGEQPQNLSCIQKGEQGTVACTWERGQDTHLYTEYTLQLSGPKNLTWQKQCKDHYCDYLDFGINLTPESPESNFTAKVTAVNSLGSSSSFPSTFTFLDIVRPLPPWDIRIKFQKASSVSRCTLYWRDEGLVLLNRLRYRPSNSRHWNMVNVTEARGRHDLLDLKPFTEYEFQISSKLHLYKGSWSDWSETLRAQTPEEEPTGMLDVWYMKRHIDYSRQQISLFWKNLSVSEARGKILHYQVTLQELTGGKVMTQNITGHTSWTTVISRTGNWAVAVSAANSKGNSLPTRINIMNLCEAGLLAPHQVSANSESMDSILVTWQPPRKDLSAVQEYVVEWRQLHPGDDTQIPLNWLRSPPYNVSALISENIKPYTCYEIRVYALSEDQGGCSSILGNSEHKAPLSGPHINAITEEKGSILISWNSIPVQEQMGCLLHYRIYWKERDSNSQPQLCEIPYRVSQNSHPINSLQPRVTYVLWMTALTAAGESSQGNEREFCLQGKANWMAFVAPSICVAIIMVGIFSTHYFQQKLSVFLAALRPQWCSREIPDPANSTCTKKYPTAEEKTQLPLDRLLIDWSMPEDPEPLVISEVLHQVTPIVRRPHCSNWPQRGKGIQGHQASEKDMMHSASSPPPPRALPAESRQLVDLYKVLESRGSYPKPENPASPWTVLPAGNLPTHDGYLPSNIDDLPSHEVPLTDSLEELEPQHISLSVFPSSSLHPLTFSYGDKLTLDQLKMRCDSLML

[4] = biological target: human IL-12Rβ1, Acro (BLI analyte) (human, UniProt P42701 24-545); test: BLI (Octet), antibody on AHC tip
[5] = biological target: T4, human IL-12Rβ2, Acro (BLI analyte) (human, UniProt Q99665 24-622, limits assumed); test: BLI (Octet), antibody on AHC tip
T4 sequence (looked up): T1 sequence (looked up)

[6] = biological target: human IL-12 receptor (IL-12Rβ1 and IL-12Rβ2) on HEK-Blue IL-12 cells (human, UniProt P42701 24-662; Q99665 24-862); test: cell-based or functional assay

OD450 nm [1]: 0.19
FOB [2]: 3.19 fold
FOB [3]: 3.84 fold
B1: VHH94B2 (VHH)
VHH: EVQLVESGGGLVQPGGSLRLSCAASGFTFSSYAMSWVRQAPGKGLEWVSAINSGGDSTSYADSVEGRFTISRDNAKNTLYLQMNSLKPDDTAVYYCAKWSDCSEYGCYDQTTTEGTQVTVSS

Kd [4]: 7.26 nM
Kd [5]: 0.768 nM
EC50 [6]: 7.7e-11 M (implied)
Max Absorbance [6]: 0.6
B2: DGL586 (bispecific antibody, V domains shown)
V domain 1: QVQLVESGGGLVQAGGSLRLSCAASGRTFSSYVMGWFRQAPGQEREFVAAIMRNGIMTYYADSVKGRFTISRDNAKNTVYLQMNTLKPDDTAVYYCAAASRVGVSISQSSSYTSWGQGTQVTVEP
V domain 2: QVQLVESGGGLVQPGGSLRLSCAASGFTFSNYAMSWVRQAPGKGLEWVSAINSDGTSTSYADSVKGQFTISRDNAKNTLYLQMNSLKPEDTAVYYCTKWEGDTDSDYKFKDYWGQGTQVTVEP
notes: 258B1 x 19B2

OD450 nm [1]: 2.99
FOB [2]: 1.64 fold
FOB [3]: 2.31 fold
B3: VHH85B2 (VHH)
VHH: QVQLVESGGGLVQAGGSLRVSCAASGRIPSLNTMAWYRQAPGKQREFVAFITNGGTTNYVDSVEGRFSISRDNTKNAVDLQMNSLKPEDTGVYYCNVQISQYPYNYWGQGTQVTVSS

OD450 nm [1]: 0.151
FOB [3]: 1.35 fold
B4: VHH93B2 (VHH)
VHH: QVQLVESGGGLVQPGGSLRLSCAASGFTFEPYDMSWFRQAPGKGPEWVSAIDKGGGAGATYYADSVKGRFTISRDNAKKTLYLQMKSLKPEDTAVYYCAITAGPYSDSTPRVAYRGEGTQVTVSS

OD450 nm [1]: 2.86
FOB [2]: 1.43 fold
B5: VHH356B2 (VHH)
VHH: QLQLVESGGGLVQPGGSLRLSCAASGSIFSINAMGWYRQAPGKQRELVAAITSGGSTAYADSVKGRFTISRDNAKNTVYLQMNSLKPEDTAVYYCNADRDPITSWYVRGDYWGQGTQVTVSS

OD450 nm [1]: 0.308
FOB [2]: 2.05 fold
B6: VHH230B2 (VHH)
VHH: QVQLVESGGGLVQAGGSLRLSCAASGRTFSSYAMGWFRQAPGKEREFVSAISWSGLSTYYVESVQGRFTISRDNAKNTVYLQMNSLKPEDTAVYYCAASRIYTNYVARSYEYDDWGQGTQVTVSS

Kd [4]: 11.3 nM
Kd [5]: 2.21 nM
EC50 [6]: > 100 nM
Max Absorbance [6]: 1.28
B7: DGL412 (bispecific antibody, human IgG1, kappa)
heavy 1: not shown
heavy 2: QVQLVESGGGLVRPGGSLRLSCAASGFTFSSNGMHWFRQAPGKGLEWVSSIGSGGTSIYYADSVKGRFTISRDNAKNTLYLQMNSLKSDDTAVYYCSKEVTGATRGQGTQVTVEPKSSDKTHTCPPCPAPEAAGAPSVFLFPPKPKDTLMISRTPEVTCVVVDVSHEDPEVKFNWYVDGVEVHNAKTKPREEQYNSTYRVVSVLTVLHQDWLNGKEYKCKVSNKALPAPIEKTISKAKGQPREPQVCTLPPSRDELTKNQVSLSCAVKGFYPSDIAVEWESNGQPENNYKTTPPVLDSDGSFFLVSKLTVDKSRWQQGNVFSCSVMHEALHNRFTQKSLSLSPG
light: DIQMTQSPSSLSASVGDRVTITCRASQGIGNYLAWFQQRPGKAPKSLIYAASSLQSGVPSKFSGSGSGTDFTLTISSLQPADFAIYYCQQYNIYPYTFGPGTRLEIKRTVAAPSVFIFPPSDEQLKSGTASVVCLLNNFYPREAKVQWKVDNALQSGNSQESVTEQDSKDSTYSLSSTLTLSKADYEKHKVYACEVTHQGLSSPVTKSFNRGEC
notes: 85801_05G01A x 13B2

OD450 nm [1]: 0.237
FOB [3]: 0.99 fold
B8: VHH219B2 (VHH)
VHH: QVQLEESGGGLVQAGGSLRLSCAASGRTFSSYVVGWFRQAPGKEREFVGRISWSGARTYYADSVEGRFTISRDNAKNTVYLQMNSLKPEDTAVYYCAADLKWEVLLSEHYEYWGQGTQVTVSS

Kd [4]: 10.6 nM
Kd [5]: 8.29 nM
EC50 [6]: 4.7e-09 M (implied)
Max Absorbance [6]: 0.59
B9: DGL551 (bispecific antibody, V domains shown)
V domain 1: QVQLVESGGGLVQAGGSLRLSCAASGRTFGTYAMGWFRQAPGKERDFVARISNSGAFTHYADSVKGRFTISRDNAKNTVYLHMNSLENGDTAAYYCVATRGTNSAYYTRSTMYEYWGQGTQVTVEP
V domain 2: QVQLVESGGGLVQAGGSLRLSCAASGRTFSRYRMGWFRQAPGKEREFVAAITKSGATTYDADSVKGRFTISRDNAKNTLYLQMNSLKPEDTAVYYCAASYHSNWWPKNADEYAYWGQGTQVTVEP
notes: 195B1 x 185B2

Kd [4]: 8.96 nM
Kd [5]: 0.386 nM
EC50 [6]: 1.5e-10 M (implied)
Max Absorbance [6]: 0.61
B10: DGL444 (bispecific antibody, human IgG1, lambda)
heavy 1: not shown
heavy 2: QVQLVQSGAEVKKPGASVKVSCKASGYTFIGYYIHWVRQAPGQGLEWMGWINPHSGGTNYAQKFQGRVTMTRDTSISTAYMELSRLRSDDTAIYYCTKEANNWGYAFDIWGQGTMVTVSSASTKGPSVFPLAPSSKSTSGGTAALGCLVKDYFPEPVTVSWNSGALTSGVHTFPAVLQSSGLYSLSSVVTVPSSSLGTQTYICNVNHKPSNTKVDKKVEPKSCDKTHTCPPCPAPEAAGAPSVFLFPPKPKDTLMISRTPEVTCVVVDVSHEDPEVKFNWYVDGVEVHNAKTKPREEQYNSTYRVVSVLTVLHQDWLNGKEYKCKVSNKALPAPIEKTISKAKGQPREPQVCTLPPSRDELTKNQVSLSCAVKGFYPSDIAVEWESNGQPENNYKTTPPVLDSDGSFFLVSKLTVDKSRWQQGNVFSCSVMHEALHNRFTQKSLSLSPG
light: not shown
notes: 195B1 x 85802_08F20A

Kd [4]: 15.9 nM
Kd [5]: 0.321 nM
EC50 [6]: 2.7e-10 M (implied)
Max Absorbance [6]: 1.24
B11: DGL426 (bispecific antibody, human IgG1, lambda)
heavy 1: not shown
heavy 2: B10 heavy 2
light: not shown
